Source: patent publication US12590951B2, “Culture medium and culture method for primary cells of intestinal cancer” (PRECEDO PHARMACEUTICALS CO., LTD, priority 2021, dated 2026)

B1: FGF10: medium additive from sino biological (protein, UniProt O15520 38-208, looked up)
Fibroblast growth factor 10: QALGQDMVSPEATNSSSSSFSSPSSAGRHVRSYNHLQGDVRWRKLFSFTKYFLKIEKNGKVSGTKKENCPYSILEITSVEIGVVAVKAINSNYYLAMNKKGKLYGSKEFNNDCKLKERIEENGYNTYASFNWQHNGRQMYVALNGKGAPRRGQKTRRKNTSAHFLPMVVHS
B2: IL-22: medium additive from Peprotech (protein, UniProt Q9GZX6 34-179, looked up)
Interleukin-22: APISSHCRLDKSNFQQPYITNRTFMLAKEASLADNNTDVRLIGEKLFHGVSMSERCYLMKQVLNFTLEEVLFPQSDRFQPYMQEVVPFLARLSNRLSTCHIEGDDLHIQRNVQKLKDTVKKLGESGEIKAIGELDLLFMSLRNACI
B3: R-spondin1: medium additive, R-spondin family protein from R&D (protein, UniProt Q2MKA7 21-263, looked up)
R-spondin-1: SRGIKGKRQRRISAEGSQACAKGCELCSEVNGCLKCSPKLFILLERNDIRQVGVCLPSCPPGYFDARNPDMNKCIKCKIEHCEACFSHNFCTKCKEGLYLHKGRCYPACPEGSSAANGTMECSSPAQCEMSEWSPWGPCSKKQQLCGFRRGSEERTRRVLHAPVGDHAACSDTKETRRCTVRRVPCPEGQKRRKGGQGRRENANRNLARKESKEAGAGSRRRKGQQQQQQQGTVGPLTSAGPA
B4: Noggin: medium additive from R&D (protein, UniProt Q13253 28-232, looked up)
Noggin: QHYLHIRPAPSDNLPLVDLIEHPDPIFDPKEKDLNETLLRSLLGGHYDPGFMATSPPEDRPGGGGGAAGGAEDLAELDQLLRQRPSGAMPSEIKGLEFSEGLAQGKKQRLSKKLRRKLQMWLWSQTFCPVLYAWNDLGSRFWPRYVKVGSCFSKRSCSVPEGMVCKPSKSVHLTVLRWRCQRRGGQRCGWIPIQYPIISECKCSC
B5: KGF: medium additive from R&D (protein, UniProt P21781 32-194, looked up)
Fibroblast growth factor 7: CNDMTPEQMATNVNCSSPERHTRSYDYMEGGDIRVRRLFCRTQWYLRIDKRGKVKGTQEMKNNYNIMEIRTVAVGIVAIKGVESEFYLAMNKEGKLYAKKECNEDCNFKELILENHYNTYASAKWTHNGGEMFVALNQKGIPVRGKKTKKEQKTAHFLPMAIT

test system: primary cells of intestinal cancer; experiment: Effect of single additives in Basic Medium on proliferation of primary cells of intestinal cancer (cell count); assay type: cell-based, human; set-up: key: +: compared with the Basic Medium, the medium added with the additive(s) has the effect of promoting the proliferation of primary cells of intestinal cancer isolated from intestinal cancer tissue in at least two cases; −: the medium added with the additive(s) has the effect of inhibiting the proliferation of primary cells of intestinal cancer isolated from intestinal cancer tissue in at least one case; ∘: the medium added with the additive(s) has no significant effect on the proliferation of primary cells of intestinal cancer isolated from intestinal cancer tissue in at least two cases; settings: additive at the final concentration in Basic Medium; samples OE0042 and OE(E)003; 7-10 days; compared with Basic Medium
Protocol: First, Basic Medium was prepared. The formulation of Basic Medium is: DMEM/F12 medium (purchased from Corning)+5 μM Y27632 (purchased from MCE)+5% (v/v) fetal bovine serum (purchased from Excell Bio)+100 μg/mL Primocin (purchased from InvivoGen, 0.2% (v/v), the concentration of commercial product is 50 mg/ml).
Different types of additives (see Table 1) were added to the Basic Medium to prepare the culture mediums for primary cells of intestinal cancer containing different components.
The culture mediums of different components as shown in Table 1 were added into a 48-well plate at a volume of 1 mL/well. Primary cells of intestinal cancer isolated from two cases of intestinal cancer tissues (numbered OE0042 and OE(E)003) according to the above step (2) were inoculated into the 48-well culture plate at a cell density of 3×10^4 cells/well, and were cultured at 37° C., under 5% CO2 concentration. After culturing for 7-10 days, when the cells grew to 85%, the culture medium was discarded, and 100 μL/well of 0.05% trypsin (purchased from Gibco) was used to rinse the cells once. After the trypsin was removed, 200 μL of 0.05% trypsin was added to each well. The plate was then placed in a 37° C., 5% CO2 incubator for 10 minutes, and the cells were observed under a microscope (CNOPTEC, BDS400), showing that the cells had completely digested. 300 μL of DMEM/F12 medium containing 10% serum (Excell Bio, FND500) was added to stop the digestion. 20 μL of the resultant was added into a cell counting plate (Countstar, specification: 50 pieces/box), and the total number of cells was counted with a cell counter (Countstar, IC1000). Specifically, Basic Medium without any additives was used as an experimental control, and the experimental results are shown in Table 1.

| Molecule | Level of promoting cell proliferation |
| --- | --- |
| B1 | − |
| B2 | − |
| B3 | ∘ |
| B4 | ∘ |
| B5 | ∘ |
